Blank lines part the entries; values can stand above or below the binder they belong to.
What was measured:
[1] = target: T1, human Siglec-15 (human, UniProt Q6ZMC9 20-328); test: flow cytometry on 293-6E cells transfected with human Siglec-15
T1 construct: also called h-Siglec-15; CD33L3
T1 sequence: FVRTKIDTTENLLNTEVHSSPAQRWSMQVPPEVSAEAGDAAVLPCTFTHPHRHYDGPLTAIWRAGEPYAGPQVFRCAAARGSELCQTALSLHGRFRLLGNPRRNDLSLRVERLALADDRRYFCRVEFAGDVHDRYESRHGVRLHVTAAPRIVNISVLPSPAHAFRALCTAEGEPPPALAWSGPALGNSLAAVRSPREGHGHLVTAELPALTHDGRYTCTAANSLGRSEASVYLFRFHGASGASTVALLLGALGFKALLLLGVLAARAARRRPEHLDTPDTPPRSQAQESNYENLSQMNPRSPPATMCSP
Description: (§1) We tested the ability of the humanized antibodies to interact with human Siglec-15 expressed on the surface of cultured cells. […] Twenty-four hours later, the cells were harvested, counted and 1×10⁵ cells were incubated with increasing concentrations of the humanized IgG1 variant of 25E9 for 1 hour at 4 C. Following a washing step with cold PBS, bound 25E9 was detected with an anti-human kappa light chain IgG conjugated to FITC. Fluorescently labeled cells were injected into a flow cytometer to measure the fluorescence signal on the surface of intact cells. […] The average KD was in the low nanomolar range. Furthermore, the binding parameters were very similar in the presence of the humanized 25E9 L1H1 IgG1 variant produced in either CHO cells or 293 cells. […] Similar results were obtained with other 25E9 humanized IgG1 antibody variants (the L1H2 IgG1, the L1H3 IgG1, the L1H4 IgG1 and, the L1H1 IgG2) or with the humanized 25D8 IgG2 antibody.

[2] = target: T1, human Siglec-15; test: flow cytometry on 293-6E cells transfected with human Siglec-15 cDNA
Description: The average KD was in the low nanomolar range. Furthermore, the binding parameters were very similar in the presence of the humanized 25E9 L1H1 IgG1 variant produced in either CHO cells or 293 cells. […] Similar results were obtained with other 25E9 humanized IgG1 antibody variants (the L1H2 IgG1, the L1H3 IgG1, the L1H4 IgG1 and, the L1H1 IgG2) or with the humanized 25D8 IgG2 antibody.
Experiments were undertaken to examine the feasibility of targeting Siglec-15-expressing cells with an ADC. The humanized 25E9 L1H1 IgG1 variant was conjugated to a payload that is toxic to proliferating cells as well as non-proliferating or fully differentiated cells, in particular osteoclasts. The humanized 25E9 L1H1 IgG1 conjugated antibody was designated 25E9-ADC. Since the conjugation might affect the ability of 25E9 to interact with native Siglec-15, flow cytometry was conducted to measure the binding of the 25E9-ADC to Siglec-15 expressing cells.

[3] = target: T1, human Siglec-15; test: cell-based or functional assay
[4] = target: T2, Fc-Siglec-15 fusion protein (Homo sapiens (Human), UniProt Q6ZMC9 20-259, limits assumed); test: SPR, Fc-Siglec-15 immobilized, antibody injected
T2 construct: also called recombinant Siglec-15; purified Fc-Siglec-15; not shown: Fc region
T2 sequence: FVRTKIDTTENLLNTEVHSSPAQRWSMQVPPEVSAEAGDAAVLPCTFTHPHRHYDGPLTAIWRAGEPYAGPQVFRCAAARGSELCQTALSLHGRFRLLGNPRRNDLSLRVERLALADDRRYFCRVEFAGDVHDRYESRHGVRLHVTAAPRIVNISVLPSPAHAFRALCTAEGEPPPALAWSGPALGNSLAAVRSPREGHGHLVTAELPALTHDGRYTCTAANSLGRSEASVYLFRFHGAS
Description: (§2) FIG. 12. SPR chromatograms illustrating the differences in binding parameters between the humanized 25E9 L1H1 IgG1 (left panel) and the humanized 25E9 L1H1 IgG2 (right panel). Purified Fc-Siglec-15 was immobilized (150RU) and humanized 25E9 was injected at the indicated concentrations (100 nM, 33.3 nM, 11.1 nM, 3.70 nM and 1.23 nM). The curves were fit with a 1:1 ratio.
(§3) More particularly, we compared the binding activity of the humanized 25E9 L1H1 IgG1 (the L1H1 IgG1 variant) with the humanized 25E9 L1H1 IgG2 (the L1H1 IgG2 variant) using SPR. The analysis was conducted using methods similar to what was described above (see Example 6). In this instance, Fc-Siglec-15 was immobilized on the chip and decreasing concentrations of the 25E9 antibody variants were injected (100 nM, 33.3 nM, 11.1 nM, 3.70 nM and 1.23 nM). […] The difference in binding was mostly contributed by a slower off-rate (kd) of the IgG1 compared to the IgG2.

[5] = target: T2, Fc-Siglec-15 fusion protein; test: SPR, Fc-Siglec-15 immobilized, antibody injected at 100 to 1.23 nM, 1:1 fit
Description: as §2, §3

[6] = target: T2, Fc-Siglec-15 fusion protein; test: SPR, Fc-Siglec-15 immobilized (150 RU), antibody injected at 100, 33.3, 11.1, 3.70 and 1.23 nM, 1:1 fit
Description: as §2, §3

[7] = target: T1, human Siglec-15; test: flow cytometry titration (0 to 4 µg/ml) on 293-6E cells transfected with human Siglec-15, detected with FITC anti-human kappa light chain; antibody made in 293 cells
Description: as §1

[8] = target: T1, human Siglec-15; test: flow cytometry titration (0 to 4 µg/ml) on 293-6E cells transfected with human Siglec-15, detected with FITC anti-human kappa light chain; antibody made in CHO cells
Description: as §1

B1: humanized 25E9 L1H2 IgG1 (antibody, V domains shown)
VH: EIQLQQSGAEVKKPGSSVKVSCKASGYTFTDYDMHWVRQAPGQGLEWIGTIDPETGGTAYNQKFKGRATLTADRSTSTAYMELSSLRSEDTAVYYCTSFYYTYSNYDVGFAYWGQGTLVTVSS
VL: DIVMTQSPLSLPVTPGEPASISCRSTKSLLHSNGNTYLYWYLQKPGQSPQLLIYRMSNLASGVPDRFSGSGSGTDFTLKISRVEAEDVGVYYCMQHLEYPFTFGGGTKVEIKR
notes: The residue ranges are those stated in CLM-00047 (item b)
binding result [1]: binds

B2: humanized 25D8 IgG2 antibody (antibody, V domains shown)
VH: QVQLQQSGAEVKKPGSSVKVSCKASGYTFTSYWMHWVRQAPGQGLEWMGLINPSNARTNYNEKFNTRVTITADKSTSTAYMELSSLRSEDTAVYYCARGGDGDYFDYWGQGTTVTVSS
VL: DIVMTQTPLSLPVTPGEPASISCRSSKSLLHSNGITYLYWYLQKPGQSPQLLIYQMSNLASGVPDRFSGSGSGTDFTLKISRVEAEDVGVYYCAQNLELPYTFGGGTKVEIKR
notes: Human kappa / human IgG2; also called humanized full-length IgG2 25D8
binding result [1]: binds

B3: humanized 25E9 L1H4 IgG1 (antibody, V domains shown)
VH: EIQLQQSGAEVKKPGSSVKVSCKASGYTFTDYDMHWVKQAPGHGLEWIGTIDPETGGTAYNQKFKGKATLTADRSTSTAYMELSSLTSEDTAVYYCTSFYYTYSNYDVGFAYWGQGTLVTVSS
VL: DIVMTQSPLSLPVTPGEPASISCRSTKSLLHSNGNTYLYWYLQKPGQSPQLLIYRMSNLASGVPDRFSGSGSGTDFTLKISRVEAEDVGVYYCMQHLEYPFTFGGGTKVEIKR
notes: The residue ranges are those stated in CLM-00047 (item d)
binding result [1]: binds

B4: 25E9-ADC (humanized 25E9 L1H1 IgG1 conjugated antibody) (antibody)
light: DIVMTQSPLSLPVTPGEPASISCRSTKSLLHSNGNTYLYWYLQKPGQSPQLLIYRMSNLASGVPDRFSGSGSGTDFTLKISRVEAEDVGVYYCMQHLEYPFTFGGGTKVEIKRTVAAPSVFIFPPSDEQLKSGTASVVCLLNNFYPREAKVQWKVDNALQSGNSQESVTEQDSKDSTYSLSSTLTLSKADYEKHKVYACEVTHQGLSSPVTKSFNRGEC
heavy: not shown
modifications: conjugated to a toxic payload; payload, linker and attachment residues not stated
EC50 (read off the curve) [2]: ~0.2 µg/mL

Next, values leading:

fold difference in potency against the humanized 25E9 L1H1 IgG2 variant (osteoclast differentiation) [3]: ~100 fold
fold higher affinity than the humanized 25E9 L1H1 IgG2 variant [4]: ~10 fold
Kd [5]: 0.164 nM
EC50 (read off the curve) [2]: ~0.1 µg/mL
koff [6]: 0.000151 s⁻¹
kon [6]: 921000 M⁻¹ s⁻¹
Kd [7]: 1.9 nM
Kd [8]: 5.7 nM
B5: humanized 25E9 L1H1 IgG1 variant (antibody)
light: DIVMTQSPLSLPVTPGEPASISCRSTKSLLHSNGNTYLYWYLQKPGQSPQLLIYRMSNLASGVPDRFSGSGSGTDFTLKISRVEAEDVGVYYCMQHLEYPFTFGGGTKVEIKRTVAAPSVFIFPPSDEQLKSGTASVVCLLNNFYPREAKVQWKVDNALQSGNSQESVTEQDSKDSTYSLSSTLTLSKADYEKHKVYACEVTHQGLSSPVTKSFNRGEC
heavy: not shown
notes: Full-length human kappa / human IgG1; Produced in CHO or 293 cells; also called humanized IgG1 variant of 25E9; unconjugated 25E9

binding result [1]: binds
B6: humanized 25E9 L1H3 IgG1 (antibody, V domains shown)
VH: EIQLQQSGAEVKKPGSSVKVSCKASGYTFTDYDMHWVKQAPGQGLEWIGTIDPETGGTAYNQKFKGKATLTADRSTSTAYMELSSLRSEDTAVYYCTSFYYTYSNYDVGFAYWGQGTLVTVSS
VL: DIVMTQSPLSLPVTPGEPASISCRSTKSLLHSNGNTYLYWYLQKPGQSPQLLIYRMSNLASGVPDRFSGSGSGTDFTLKISRVEAEDVGVYYCMQHLEYPFTFGGGTKVEIKR
notes: The residue ranges are those stated in CLM-00047 (item c)

Kd [5]: 1.26 nM
koff [6]: 0.000655 s⁻¹
kon [6]: 520000 M⁻¹ s⁻¹
B7: humanized 25E9 L1H1 IgG2 variant (antibody)
light: DIVMTQSPLSLPVTPGEPASISCRSTKSLLHSNGNTYLYWYLQKPGQSPQLLIYRMSNLASGVPDRFSGSGSGTDFTLKISRVEAEDVGVYYCMQHLEYPFTFGGGTKVEIKRTVAAPSVFIFPPSDEQLKSGTASVVCLLNNFYPREAKVQWKVDNALQSGNSQESVTEQDSKDSTYSLSSTLTLSKADYEKHKVYACEVTHQGLSSPVTKSFNRGEC
heavy: EIQLQQSGAEVKKPGSSVKVSCKASGYTFTDYDMHWVRQAPGQGLEWMGTIDPETGGTAYNQKFKGRVTITADKSTSTAYMELSSLRSEDTAVYYCTSFYYTYSNYDVGFAYWGQGTLVTVSSASTKGPSVFPLAPCSRSTSESTAALGCLVKDYFPEPVTVSWNSGALTSGVHTFPAVLQSSGLYSLSSVVTVPSSNFGTQTYTCNVDHKPSNTKVDKTVERKCCVECPPCPAPPVAGPSVFLFPPKPKDTLMISRTPEVTCVVVDVSHEDPEVQFNWYVDGVEVHNAKTKPREEQFNSTFRVVSVLTVVHQDWLNGKEYKCKVSNKGLPAPIEKTISKTKGQPREPQVYTLPPSREEMTKNQVSLTCLVKGFYPSDIAVEWESNGQPENNYKTTPPMLDSDGSFFLYSKLTVDKSRWQQGNVFSCSVMHEALHNHYTQKSLSLSPGK
notes: Full-length human kappa / human IgG2; also called humanized 25E9 IgG2
